Our source for the He/Con_2aR values is patent US20150344570A1 (published 2015).

The chains are these.
T1: FcγRIIa R extracellular domain with C-terminal His tag (human, UniProt P12318 34-217)
T1 construct: extracellular domain; also called FcgRIIa R; 2aR; not shown: His tag at the C terminus
T1 sequence (looked up): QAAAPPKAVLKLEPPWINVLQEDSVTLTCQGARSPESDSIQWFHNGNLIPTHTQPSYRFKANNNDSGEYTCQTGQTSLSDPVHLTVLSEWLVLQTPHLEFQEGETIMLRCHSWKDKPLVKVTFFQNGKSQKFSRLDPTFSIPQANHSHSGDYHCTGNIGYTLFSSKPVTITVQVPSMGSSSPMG

B1: GpH7-A5/GpH7-B3 variant A330_12R/GpL16-k0 (antibody, human IgG1, kappa)
heavy 1: not shown
heavy 2: not shown
light: DIVMTQSPLSLPVTPGEPASISCQASESLVHSNRNTYLHWYLQKPGQSPQLLIYKVSNRFSGVPDRFSGSGSGTDFTLKISRVEAEDVGVYYCSQNTHVPPTFGQGTKVEIERTVAAPSVFIFPPSDEQLKSGTASVVCLLNNFYPREAKVQWKVDNALQSGNSQESVTEQDSKDSTYSLSSTLTLSKADYEKHKVYACEVTHQGLSSPVTKSFNRGEC
notes: heterodimerized: alteration in one H chain only; also called He Ab A330_12R
B2: GpH7-A5/GpH7-B3 variant K326_08L/GpL16-k0 (antibody, human IgG1, kappa)
heavy 1: not shown
heavy 2: not shown
light: DIVMTQSPLSLPVTPGEPASISCQASESLVHSNRNTYLHWYLQKPGQSPQLLIYKVSNRFSGVPDRFSGSGSGTDFTLKISRVEAEDVGVYYCSQNTHVPPTFGQGTKVEIERTVAAPSVFIFPPSDEQLKSGTASVVCLLNNFYPREAKVQWKVDNALQSGNSQESVTEQDSKDSTYSLSSTLTLSKADYEKHKVYACEVTHQGLSSPVTKSFNRGEC
notes: heterodimerized: alteration in one H chain only; also called He Ab K326_08L
B3: GpH7-A5/GpH7-B3 variant I332_06M/GpL16-k0 (antibody, human IgG1, kappa)
heavy 1: not shown
heavy 2: not shown
light: DIVMTQSPLSLPVTPGEPASISCQASESLVHSNRNTYLHWYLQKPGQSPQLLIYKVSNRFSGVPDRFSGSGSGTDFTLKISRVEAEDVGVYYCSQNTHVPPTFGQGTKVEIERTVAAPSVFIFPPSDEQLKSGTASVVCLLNNFYPREAKVQWKVDNALQSGNSQESVTEQDSKDSTYSLSSTLTLSKADYEKHKVYACEVTHQGLSSPVTKSFNRGEC
notes: heterodimerized: alteration in one H chain only; also called He Ab I332_06M
B4: GpH7-A5/GpH7-B3 variant K326_03V/GpL16-k0 (antibody, human IgG1, kappa)
heavy 1: not shown
heavy 2: not shown
light: DIVMTQSPLSLPVTPGEPASISCQASESLVHSNRNTYLHWYLQKPGQSPQLLIYKVSNRFSGVPDRFSGSGSGTDFTLKISRVEAEDVGVYYCSQNTHVPPTFGQGTKVEIERTVAAPSVFIFPPSDEQLKSGTASVVCLLNNFYPREAKVQWKVDNALQSGNSQESVTEQDSKDSTYSLSSTLTLSKADYEKHKVYACEVTHQGLSSPVTKSFNRGEC
notes: heterodimerized: alteration in one H chain only; also called He Ab K326_03V
B5: GpH7-A5/GpH7-B3 variant K326_07I/GpL16-k0 (antibody, human IgG1, kappa)
heavy 1: not shown
heavy 2: not shown
light: DIVMTQSPLSLPVTPGEPASISCQASESLVHSNRNTYLHWYLQKPGQSPQLLIYKVSNRFSGVPDRFSGSGSGTDFTLKISRVEAEDVGVYYCSQNTHVPPTFGQGTKVEIERTVAAPSVFIFPPSDEQLKSGTASVVCLLNNFYPREAKVQWKVDNALQSGNSQESVTEQDSKDSTYSLSSTLTLSKADYEKHKVYACEVTHQGLSSPVTKSFNRGEC
notes: heterodimerized: alteration in one H chain only; also called He Ab K326_07I
B6: GpH7-A5/GpH7-B3 variant K326_15Y/GpL16-k0 (antibody, human IgG1, kappa)
heavy 1: not shown
heavy 2: not shown
light: DIVMTQSPLSLPVTPGEPASISCQASESLVHSNRNTYLHWYLQKPGQSPQLLIYKVSNRFSGVPDRFSGSGSGTDFTLKISRVEAEDVGVYYCSQNTHVPPTFGQGTKVEIERTVAAPSVFIFPPSDEQLKSGTASVVCLLNNFYPREAKVQWKVDNALQSGNSQESVTEQDSKDSTYSLSSTLTLSKADYEKHKVYACEVTHQGLSSPVTKSFNRGEC
notes: heterodimerized: alteration in one H chain only; also called He Ab K326_15Y
B7: GpH7-A5/GpH7-B3 variant A330_01G/GpL16-k0 (antibody, human IgG1, kappa)
heavy 1: not shown
heavy 2: not shown
light: DIVMTQSPLSLPVTPGEPASISCQASESLVHSNRNTYLHWYLQKPGQSPQLLIYKVSNRFSGVPDRFSGSGSGTDFTLKISRVEAEDVGVYYCSQNTHVPPTFGQGTKVEIERTVAAPSVFIFPPSDEQLKSGTASVVCLLNNFYPREAKVQWKVDNALQSGNSQESVTEQDSKDSTYSLSSTLTLSKADYEKHKVYACEVTHQGLSSPVTKSFNRGEC
notes: heterodimerized: alteration in one H chain only; also called He Ab A330_01G
B8: GpH7-A5/GpH7-B3 variant K326_20W/GpL16-k0 (antibody, human IgG1, kappa)
heavy 1: not shown
heavy 2: not shown
light: DIVMTQSPLSLPVTPGEPASISCQASESLVHSNRNTYLHWYLQKPGQSPQLLIYKVSNRFSGVPDRFSGSGSGTDFTLKISRVEAEDVGVYYCSQNTHVPPTFGQGTKVEIERTVAAPSVFIFPPSDEQLKSGTASVVCLLNNFYPREAKVQWKVDNALQSGNSQESVTEQDSKDSTYSLSSTLTLSKADYEKHKVYACEVTHQGLSSPVTKSFNRGEC
notes: heterodimerized: alteration in one H chain only; also called He Ab K326_20W
B9: GpH7-A5/GpH7-B3 variant I336_08L/GpL16-k0 (antibody, human IgG1, kappa)
heavy 1: not shown
heavy 2: not shown
light: DIVMTQSPLSLPVTPGEPASISCQASESLVHSNRNTYLHWYLQKPGQSPQLLIYKVSNRFSGVPDRFSGSGSGTDFTLKISRVEAEDVGVYYCSQNTHVPPTFGQGTKVEIERTVAAPSVFIFPPSDEQLKSGTASVVCLLNNFYPREAKVQWKVDNALQSGNSQESVTEQDSKDSTYSLSSTLTLSKADYEKHKVYACEVTHQGLSSPVTKSFNRGEC
notes: heterodimerized: alteration in one H chain only; also called He Ab I336_08L
B10: GpH7-A5/GpH7-B3 variant G237_20W/GpL16-k0 (antibody, human IgG1, kappa)
heavy 1: not shown
heavy 2: not shown
light: DIVMTQSPLSLPVTPGEPASISCQASESLVHSNRNTYLHWYLQKPGQSPQLLIYKVSNRFSGVPDRFSGSGSGTDFTLKISRVEAEDVGVYYCSQNTHVPPTFGQGTKVEIERTVAAPSVFIFPPSDEQLKSGTASVVCLLNNFYPREAKVQWKVDNALQSGNSQESVTEQDSKDSTYSLSSTLTLSKADYEKHKVYACEVTHQGLSSPVTKSFNRGEC
notes: heterodimerized: alteration in one H chain only; also called He Ab G237_20W

For this assay, the target named is T1, FcγRIIa R extracellular domain with …. Briefly: SPR (Biacore), relative FcγRIIa R binding, GpH7-A5/GpH7-B3/GpL16-k0 = 100. On the technique in general: In SPR one partner is held on a chip, and binding of the other changes the refractive index at the surface.
Turning to B1, the He/Con_2aR was 104 % of control.

With B2, the He/Con_2aR was 137 % of control.

For B3, the He/Con_2aR is 109 % of control.

Consider B4, for which the He/Con_2aR is 141 % of control.

Regarding B5, the He/Con_2aR was 147 % of control.

As for B6, the He/Con_2aR was 136 % of control.

In the case of B7, the He/Con_2aR was 109 % of control.

With B8, the He/Con_2aR is 131 % of control.

Take B9: the He/Con_2aR was 110 % of control.

Take B10: the He/Con_2aR was 138 % of control.
